Results published in the supplement of paper PMC10126150.
± gives the standard deviation of the averaged measurements.

test system: ATP; test: switch fluorescence ratio, 500 uM ATP over buffer (Cy3 cluster intensity, sum of 5 cycles each) (fold (ratio)); higher = stronger signal-on switching upon ATP binding; sequences stand for … in TCGTCGGCAGCGTCAGATGTGTATAAGAGACAGTTTTTTTTTTTTTTTTTTTTTTTTT…TC; details: aptamer strand: ATP DNA aptamer (quencher-CACCTGGGGGAGTATTGCGGAGGAAGG + anchor), 100 nM annealed; ATP concentration: 500 uM
Method in brief: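 Per cluster, summed Cy3 intensity from the target cycles was divided by that from the buffer cycles to give the fluorescence ratio, then averaged per switch-domain sequence. Clusters outside 100-1000 RFU were excluded. The Cy3-labelled switching-strand clusters, on a modified Illumina MiSeq flow-cell, were annealed to 100 nM quencher-labelled ATP aptamer and imaged in selection buffer, then after 15 min with 500 uM ATP at 22 °C, for five cycles with NaOH stripping and re-annealing between them.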
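Note: ATP exposure 15 min at 22 °C before imaging.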

| Sequence | switch fluorescence ratio |
| --- | --- |
| CTCAAAGTCT | 1.02 ± 0.012 |
| CGAATATAGC | 1.02 ± 0.015 |
| GGATTACCCT | 1.04 ± 0.015 |
| AAGCCGCTAG | 1.11 ± 0.026 |
| TGCTCTTTTT | 1 ± 0.019 |
| ATGGTTCAAC | 1.003 ± 0.01 |
| GCTTTTTTGG | 0.994 ± 0.025 |
| ACGTTTATGT | 1.02 ± 0.02 |
| AAGGGGATCG | 1.03 ± 0.027 |
| ACTGGGTTTT | 1.022 ± 0.0022 |
| TTTACCCCGC | 1.63 ± 0.58 |
| CGAAGTTTCG | 1.02 ± 0.017 |
| TATGCCTGTG | 1.01 ± 0.036 |
| CTTTGCCTAG | 0.9806 ± 0.0088 |
| ATGGATCGAT | 0.967 ± 0.037 |
| AGGGGAGTTG | 0.995 ± 0.027 |
| TATGAATAGC | 1.02 ± 0.05 |
| GACCATTGTT | 1.01 ± 0.013 |
| CGTGCGGGTT | 0.993 ± 0.047 |
| AACATCTAGC | 0.994 ± 0.031 |
| GAGTGTGCGT | 0.975 ± 0.036 |
| TATCATGTGA | 1.01 ± 0.011 |
| AAACGTTGCT | 1.19 ± 0.015 |
| GAATTTTGCG | 0.999 ± 0.021 |
| TCAGTTGGGG | 0.991 ± 0.011 |

| Sequence | switch fluorescence ratio |
| --- | --- |
| TTGGGTGGAG | 0.991 ± 0.023 |
| GCAGTGTACG | 0.997 ± 0.0087 |
| CGGCCAATAA | 3.19 ± 0.12 |
| AGTGTGTCGG | 0.974 ± 0.067 |
| CAAGTCGTTT | 1.017 ± 0.0023 |
| TATTTGGTAT | 0.9862 ± 0.0075 |
| GAGTGTGCGC | 1.02 ± 0.03 |
| AATTTTTGAG | 0.988 ± 0.024 |
| TCTGCTAAAA | 0.973 ± 0.041 |
| ATGCGTGAGG | 1.011 ± 0.0037 |
| GGCAATTATT | 1.02 ± 0.026 |
| TTGTATTATG | 1.008 ± 0.0095 |
| GCAGGTGGTG | 1.08 ± 0.062 |
| GCCCTAAGGC | 0.979 ± 0.054 |
| ATGTAGAAGG | 1 ± 0.029 |
| TTTGGCTTCG | 1.042 ± 0.0038 |
| GGTGTTAGGT | 0.9925 ± 0.0029 |
| TCAAAGGGGG | 0.951 ± 0.023 |
| GCAACGTTCC | 1.96 ± 1.4 |
| TTTTTTGGAG | 1.01 ± 0.023 |
| TTCCCGGCAG | 1.38 ± 0.47 |
| AGTGGGAGAG | 1.02 ± 0.06 |
| GGGCTTTGTG | 1 ± 0.01 |
| CGTAATAAGG | 0.98799 ± 0.00022 |
| TAAAAGTGGG | 1.009 ± 0.003 |

| Sequence | switch fluorescence ratio |
| --- | --- |
| ACTATGTGGT | 0.9971 ± 0.0096 |
| TGGGGGTTGT | 0.987 ± 0.025 |
| CTTGTTGATT | 1.009 ± 0.0056 |
| GATCGAAGGG | 0.9849 ± 0.0079 |
| TGGGTGATAA | 1.04 ± 0.048 |
| AGGCCGAGGA | 0.991 ± 0.018 |
| GTGATTGCTA | 0.9878 ± 0.0061 |
| TTATCTGTTA | 1.014 ± 0.0018 |
| GACTCAGTTG | 0.9947 ± 0.0084 |
| TTGACAATGT | 1.03 ± 0.095 |
| CTAGATTCGC | 0.984 ± 0.025 |
| AATTTTTAGT | 0.981 ± 0.024 |
| AGGAGGCATT | 1.02 ± 0.02 |
| CATAGGTCGG | 0.974 ± 0.021 |
| TCCACAGTGG | 1.35 ± 0.41 |
| CGTTTTTACT | 0.99 ± 0.052 |
| AAAAAAATGT | 1.054 ± 0.01 |
| GGAGGGGGGC | 1.09 ± 0.16 |
| AGGCGGGGCT | 0.97301 ± 0.00064 |
| TAAACCGGGT | 1.05 ± 0.074 |
| CCGCGTACGG | 2.03 ± 0.22 |
| GCTTTTGGTA | 1.002 ± 0.0095 |
| CATGGGAAGA | 0.9755 ± 0.004 |
| GGGGGATCGG | 1.01 ± 0.022 |
| TTTATCCGGG | 0.99 ± 0.05 |

| Sequence | switch fluorescence ratio |
| --- | --- |
| TGGTGAGGGA | 0.99 ± 0.014 |
| AATGCCCGGC | 1.02 ± 0.11 |
| ATATATGCCG | 0.985 ± 0.044 |
| ATCATGTGCG | 1.01 ± 0.033 |
| AGGCGAAGCA | 0.9923 ± 0.0092 |
| AGAATTGAGA | 0.971 ± 0.019 |
| AGTATTCTAT | 1.004 ± 0.0034 |
| TTATGTTGGG | 1.013 ± 0.0047 |
| AATATTTGAG | 0.998 ± 0.02 |
| CGGGTGTGCG | 0.955 ± 0.088 |
| TTTTTTGTCA | 1.02 ± 0.042 |
| GGTTGATGGG | 0.999 ± 0.038 |
| TTGTATCTTC | 0.993 ± 0.041 |
| TTATCGATGA | 1 ± 0.03 |
| CTGGGGCGTG | 1.02 ± 0.014 |
| AAGTATTTTT | 1.018 ± 0.0058 |
| TAAGTTCTAA | 0.979 ± 0.018 |
| CGGCTTGCGG | 1.03 ± 0.015 |
| TGATGTGAAA | 0.977 ± 0.015 |
| TCGGGTAAAA | 1.01 ± 0.028 |
| TGCACCATTT | 1.02 ± 0.014 |
| AGTGGCGTTC | 1.01 ± 0.073 |
| TAATTGGGTC | 1.024 ± 0.0024 |
| ATCTAGTACG | 1.02 ± 0.044 |
| TAATAGAAAA | 1.011 ± 0.006 |
